Changes are numbered by the printed parent chain. In names and notes the source's numbering stands.
B1: N-terminal domain mutant protein of KaiC, residues 1 to 268 (KaiCN) (domain or fragment, UniProt Q79V60 1-268, looked up)
chain: MTNLPEHQSSPTEQSSAEVKKIPTMIEGFDDISHGGLPQGRTTLVSGTSGTGKTLFAVQFLYNGITIFNEPGIFVTFEESPQDIIKNALSFGWNLQSLIDQGKLFILDASPDPDGQEVAGDFDLSALIERIQYAIRKYKATRVSIDSVTAVFQQYDAASVVRREIFRLAFRLKQLGVTTIMTTERVDEYGPVARFGVEEFVSDNVVILRNVLEGERRRRTVEILKLRGTTHMKGEYPFTINNGINIFPLGAMRLTQRSSNVRVSSGVK
notes: KaiC, Thermosynechococcus elongatus BP-1, N-terminal domain, residues 1-268; Used as monomer (no ATP) and as hexamer (with ATP or Mg-ATP); the assay tells which; also called KaiCN^1mer; KaiCN^6mer
B2: mutant KaiB with a C-terminal deletion of residues 95 to 108 (KaiB1-94) (domain or fragment, UniProt Q79V61 1-94, looked up)
chain: MAPLRKTYVLKLYVAGNTPNSVRALKTLNNILEKEFKGVYALKVIDVLKNPQLAEEDKILATPTLAKVLPPPVRRIIGDLSNREKVLIGLDLLY
notes: KaiB, Thermosynechococcus elongatus BP-1, residues 1-94 (C-terminal residues 95-108 deleted)
B3: KaiC_(S431D&T432D) (KaiCDD) (natural protein, UniProt Q79V60 1-518, looked up)
chain: MTNLPEHQSSPTEQSSAEVKKIPTMIEGFDDISHGGLPQGRTTLVSGTSGTGKTLFAVQFLYNGITIFNEPGIFVTFEESPQDIIKNALSFGWNLQSLIDQGKLFILDASPDPDGQEVAGDFDLSALIERIQYAIRKYKATRVSIDSVTAVFQQYDAASVVRREIFRLAFRLKQLGVTTIMTTERVDEYGPVARFGVEEFVSDNVVILRNVLEGERRRRTVEILKLRGTTHMKGEYPFTINNGINIFPLGAMRLTQRSSNVRVSSGVKTLDEMCGGGFFKDSIILATGATGTGKTLLVSKFLETGCQQGERALLFAYEESRAQLSRNASSWGIDFEELERRGLLRIICAYPESAGLEDHLQIIKSEIADFKPSRVAIDSLSALARGVSNNAFRQFVIGVTGFAKQEEITGFFTNTTDQFMGSNSITESHIDDITDTILLLQYVEIRGEMSRAINVFKMRGSWHDKGIREYVITEKGAEIRDSFRNFEGIISGTPTRISVDEKTELARIAKGMQDLESE
notes: KaiC, Thermosynechococcus elongatus BP-1, subunit of 518 amino acid residues, aspartate at the two phosphorylation sites; Used as monomer (KaiC^1mer, no ATP) and as hexamer (KaiC^6mer; with Mg-ATP, ATP, Mg-AMPPNP, Mg-ATPγS or Mg-ADP-AlFx); the assay tells which; also called KaiCDD^1mer; KaiCDD^6mer
B4: wild-type KaiB (KaiBWT) (natural protein, UniProt Q79V61 1-108, looked up)
chain: MAPLRKTYVLKLYVAGNTPNSVRALKTLNNILEKEFKGVYALKVIDVLKNPQLAEEDKILATPTLAKVLPPPVRRIIGDLSNREKVLIGLDLLYEEIGDQAEDDLGLE
notes: KaiB, Thermosynechococcus elongatus BP-1, wild type, subunit of 108 amino acid residues; also called KaiBWT^4mer; KaiB^4mer

How the values were obtained:
[1] = biological target: the molecule itself; experiment: native gel or EMSA; 5 μM monomeric KaiC incubated with 1 mM ATP with or without 5 mM MgCl2 at 4 °C; monomer to hexamer
[2] = biological target: B3; experiment: native gel or EMSA; monomeric KaiC (5 μM; 1 μM for the concentration series) with KaiB1-94 or 7.5 μM KaiBWT in reaction buffer without ATP, 4 °C, 6 h (KaiC_(C/DD) also at 25 °C); 10 % native gel, CBB, densitometry; conditions: both partners purified
KaiC_(K294H/DD) = biological target: T1, KaiC_(K294H/DD) (Thermosynechococcus elongatus BP-1 …, UniProt Q79V60 1-518, K294H | S431D | T432D); experiment: as above; conditions: both partners purified
T1 construct: KaiC, Thermosynechococcus elongatus BP-1, 518 residues, K294H in Walker's motif A (C-terminal ATPase motif mutation by the results) plus the DD mutation; Used as monomer (no ATP) and as hexamer (with Mg-ATP); the assay tells which; also called KaiC_(K294H/DD)^1mer; KaiC_(K294H/DD)^6mer
T1 sequence (looked up): B3 chain with K294H

[3] = biological target: B1; experiment: as above; conditions: both partners purified
KaiC_(K53H/DD) = biological target: T2, KaiC_(K53H/DD) (Thermosynechococcus elongatus BP-1 …, UniProt Q79V60 1-518, K53H | S431D | T432D); experiment: as above; conditions: both partners purified
T2 construct: KaiC, Thermosynechococcus elongatus BP-1, 518 residues, K53H in the N-terminal Walker's motif A plus the DD mutation; Used as monomer (no ATP) and as hexamer (with Mg-ATP); the assay tells which; also called KaiC_(K53H/DD)^1mer; KaiC_(K53H/DD)^6mer
T2 sequence (looked up): B3 chain with K53H

[4] = biological target: B3; experiment: native gel or EMSA; KaiBWT (1 μM) or KaiB1-94 (2 μM) with 1 μM KaiCDD hexamer in reaction buffer (20 mM HEPES-NaOH pH 7.5, 150 mM NaCl) with Mg-ATP at 40 °C, time course; 10 % native gel, CBB, densitometry; conditions: both partners purified
KaiC_(K294H) = biological target: T3, KaiC_(K294H) (Thermosynechococcus elongatus BP-1 …, UniProt Q79V60 1-518, K294H); experiment: native gel or EMSA; KaiC hexamer (formed with Mg-ATP, 1 μM) with 5 μM KaiB1-94 in the presence of Mg-ATP at 4 °C; native PAGE, complex bands checked by second-dimension SDS-PAGE; conditions: both partners purified
T3 construct: KaiC, Thermosynechococcus elongatus BP-1, 518 residues, K294H in Walker's motif A of the C-terminal domain; Used as hexamer formed with Mg-ATP; also called KaiC_(K294H)^6mer
T3 sequence (looked up): B3 chain with K294H, D431S, D432T

wild-type KaiC (KaiCWT) = biological target: T4, wild-type KaiC (KaiCWT) (Thermosynechococcus elongatus BP-1 …, UniProt Q79V60 1-518, phosphorylation level of the KaiCWT preparations about 30 % (phosphorylation sites Ser431 and Thr432)); experiment: as above; conditions: both partners purified
T4 construct: KaiC, Thermosynechococcus elongatus BP-1, wild type, subunit of 518 amino acid residues; Used as hexamer formed with Mg-ATP; also called KaiCWT^6mer
T4 sequence (looked up): B3 chain with D431S, D432T

For B1, the “stoichiometry N” value [1] was 6.

For B2, the EC50 [2] was about 0.7 µM, the “t1/2 of complex formation” value [2] was about 2.5 h and the binding result (KaiC_(K294H/DD)) was “binds”. For the same binder, the binding result [3] was “binds”, the binding result (KaiC_(K53H/DD)) was “binds” and the “t1/2 of complex formation” value [4] was 1.2 h. B2: binds (KaiC_(K294H)); binds (wild-type KaiC (KaiCWT)).

In the case of B3, the “stoichiometry N” value [1] is reported as 6.

B4: binds [4].

From PMC3823767, “The ATP-Mediated Regulation of KaiB-KaiC Interaction in the Cyanobacterial Circadian Clock” (PLoS ONE, 2013)
